Experiments:
[1] = test system: ZFN 17747 (IgM) (synthetic); assay: cell_activity; settings: pair 17747/17749, CMV promoter, C6 chromosomes cleaved (about 1% with CAG); 5 of 43 rats modified
[2] = test system: ZFN 17749 (IgM) (synthetic); assay: cell_activity; settings: pair 17747/17749, CMV promoter, C6 chromosomes cleaved (about 1% with CAG); 5 of 43 rats modified

Row | Sequence | activity [1] [%] | activity [2] [%]
1 | AATTTGGTGGCCATGGGC (double strand) [IgM target of 17747] | 3 | –
2 | AGACAGGGGGCTCTC (double strand) [IgM target of 17749] | – | 3

— patent US20160068865
